This assay addresses T1, α, β and γENaC subunits (Rattus norvegicus, UniProt P37089+P37090+P37091).
T1 construct: expressed in transfected cells; host or cells: Xenopus oocytes (cRNA injection; with or without V5-SPLUNC1 and CAP2)
T1 sequence (P37089 1-698): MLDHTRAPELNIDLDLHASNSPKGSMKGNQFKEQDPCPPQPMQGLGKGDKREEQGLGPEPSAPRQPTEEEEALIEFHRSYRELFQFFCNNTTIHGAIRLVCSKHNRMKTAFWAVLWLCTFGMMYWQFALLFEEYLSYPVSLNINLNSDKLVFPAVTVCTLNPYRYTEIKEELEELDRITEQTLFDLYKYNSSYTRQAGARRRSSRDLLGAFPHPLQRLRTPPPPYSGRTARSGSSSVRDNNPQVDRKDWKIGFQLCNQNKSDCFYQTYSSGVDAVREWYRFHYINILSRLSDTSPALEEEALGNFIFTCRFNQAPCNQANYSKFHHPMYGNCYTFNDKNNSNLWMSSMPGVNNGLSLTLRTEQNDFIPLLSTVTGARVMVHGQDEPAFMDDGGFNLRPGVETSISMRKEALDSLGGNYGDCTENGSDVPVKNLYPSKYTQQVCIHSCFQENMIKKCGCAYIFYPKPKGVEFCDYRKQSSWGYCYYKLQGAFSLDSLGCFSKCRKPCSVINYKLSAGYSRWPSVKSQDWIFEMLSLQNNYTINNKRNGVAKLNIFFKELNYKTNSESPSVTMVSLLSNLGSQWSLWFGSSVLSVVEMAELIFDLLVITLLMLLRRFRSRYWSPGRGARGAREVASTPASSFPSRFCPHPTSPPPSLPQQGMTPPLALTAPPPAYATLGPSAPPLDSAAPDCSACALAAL
T1 sequence (P37090 1-638): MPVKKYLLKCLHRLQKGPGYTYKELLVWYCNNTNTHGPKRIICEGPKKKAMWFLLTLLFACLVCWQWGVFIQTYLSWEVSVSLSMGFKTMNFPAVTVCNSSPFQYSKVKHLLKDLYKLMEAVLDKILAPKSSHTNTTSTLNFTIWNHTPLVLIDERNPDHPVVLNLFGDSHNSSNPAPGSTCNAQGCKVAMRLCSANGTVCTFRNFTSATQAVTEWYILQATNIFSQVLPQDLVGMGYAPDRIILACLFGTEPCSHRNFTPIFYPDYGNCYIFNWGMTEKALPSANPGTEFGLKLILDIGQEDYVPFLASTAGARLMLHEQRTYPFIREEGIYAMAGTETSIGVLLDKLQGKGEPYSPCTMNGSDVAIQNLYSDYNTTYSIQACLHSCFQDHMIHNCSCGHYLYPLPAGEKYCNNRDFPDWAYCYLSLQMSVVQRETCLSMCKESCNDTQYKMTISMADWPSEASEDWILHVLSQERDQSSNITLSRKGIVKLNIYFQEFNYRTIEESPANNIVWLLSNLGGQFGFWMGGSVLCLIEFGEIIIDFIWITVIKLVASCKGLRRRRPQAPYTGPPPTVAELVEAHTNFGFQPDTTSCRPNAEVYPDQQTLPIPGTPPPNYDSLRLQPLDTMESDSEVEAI
T1 sequence (P37091 1-650): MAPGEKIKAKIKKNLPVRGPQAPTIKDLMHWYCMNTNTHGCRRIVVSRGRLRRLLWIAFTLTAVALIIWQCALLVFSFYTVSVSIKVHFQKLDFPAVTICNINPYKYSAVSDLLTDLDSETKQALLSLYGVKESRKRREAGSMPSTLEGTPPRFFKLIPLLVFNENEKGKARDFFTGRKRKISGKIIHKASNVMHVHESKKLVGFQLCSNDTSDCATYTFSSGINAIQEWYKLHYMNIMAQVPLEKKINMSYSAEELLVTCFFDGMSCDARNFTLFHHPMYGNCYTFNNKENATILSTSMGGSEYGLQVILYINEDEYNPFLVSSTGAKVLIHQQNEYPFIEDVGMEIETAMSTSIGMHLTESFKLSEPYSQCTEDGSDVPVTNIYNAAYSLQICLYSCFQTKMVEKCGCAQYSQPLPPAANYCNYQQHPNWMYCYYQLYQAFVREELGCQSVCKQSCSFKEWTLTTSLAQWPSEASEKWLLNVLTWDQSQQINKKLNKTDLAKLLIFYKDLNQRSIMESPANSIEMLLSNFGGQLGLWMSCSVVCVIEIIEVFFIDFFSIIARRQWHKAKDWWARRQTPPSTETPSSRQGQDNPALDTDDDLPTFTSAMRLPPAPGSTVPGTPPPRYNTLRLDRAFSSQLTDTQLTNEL
The experiment in a line: Co-immunoprecipitation of V5-tagged SPLUNC1 with HA-tagged ENaC subunits in Xenopus oocytes. The conditions noted are these: V5-tagged SPLUNC1, anti-HA immunoprecipitation. The format is binding. Here is the method:
Xenopus oocytes were injected with either HA-N-Terminus or V5-C-Terminus (HA-NT/V5-CT) tagged subunits in combination with wild type (WT) untagged rat αβγENaC subunits (0.3 ng cRNA each) with or without V5-tagged SPLUNC1 and CAP2 (1 ng cRNA each). After 24 h, 40 eggs per experimental condition were lysed with buffer containing (in mM): 20 Tris, 50 NaCl, 50 NaF, 10 β-glycerophosphate, 5 Na4P2O7 pyrophosphate, 1 EDTA, pH 7.5 and protease inhibitors (complete, Roche), aprotinin (Sigma). Cell lysates were prepared by passing the eggs through a 27G1/2 needle twice and by centrifugation at 3,600 rpm for 10 minutes at 4° C. Supernatants were transferred to new tubes and samples were spun at 14,000 rpm for 20 minutes at 4° C. Supernatants were discarded and pellets were solubilized in (mM) 50 Tris, 100 NaCl, 0.1% Triton X-100, 0.1% NP-40, 20 NaF, 10 Na4P2O7, 10 EDTA+protease inhibitor cocktail (Sigma), pH 7.5. Total inputs were taken from whole cell samples representing 4% of total protein. Solubilized proteins were incubated with 50 μl of protein A and 5 μl of anti-HA antibody (Covance) overnight while tumbling at 4° C. Samples were washed three times with (mM) 150 NaCl 50 Tris pH 7.5 buffer. Laemmli buffer was added and samples were loaded on a 15% gradient Tris-glycine gel after incubation for 10 minutes at 96° C. […]

B1: SPLUNC1: human SPLUNC1 (SEQ ID NO:1), 256 amino acid secreted PLUNC family protein; rSPLUNC1 is the purified V5/6His-tagged recombinant form (protein, listed as Homo sapiens)
chain: MFQTGGLIVFYGLLAQTMAQFGGLPVPLDQTLPLNVNPALPLSPTGLAGSLTNALSNGLLSGGLLGILENLPLLDILKPGGGTSGGLLGGLLGKVTSVIPGLNNIIDIKVTDPQLLELGLVQSPDGHRLYVTIPLGIKLQVNTPLVGASLLRLAVKLDITAEILAVRDKQERIHLVLGDCTHSPGSLQISLLDGLGPLPIQGLLDSLTGILNKVLPELVQGNVCPLVNEVLRGLDITLVHDIVNMLIHGLQFVIKV
modifications: V5/6His tag in recombinant form
notes: rSPLUNC1 is the purified V5/6His-tagged recombinant form
In the case of B1, the “binding to ENaC subunits (co-immunoprecipitation)” value is listed as “bound to all three ENaC subunits”.
